In patent publication US20200338219A1 (ACTINIUM PHARMACEUTICALS, published 2020):

Columns and labels:
[1] = target: T1, human CD45 protein, wild-type (WT) construct expressed on HEK-293T cells (human, UniProt P08575 26-1306); assay: high-throughput flow cytometry on HEK-293T cells expressing WT CD45 against vector alone, 5.00 µg/ml
T1 construct: also called target protein (WT); PTPRC
T1 sequence: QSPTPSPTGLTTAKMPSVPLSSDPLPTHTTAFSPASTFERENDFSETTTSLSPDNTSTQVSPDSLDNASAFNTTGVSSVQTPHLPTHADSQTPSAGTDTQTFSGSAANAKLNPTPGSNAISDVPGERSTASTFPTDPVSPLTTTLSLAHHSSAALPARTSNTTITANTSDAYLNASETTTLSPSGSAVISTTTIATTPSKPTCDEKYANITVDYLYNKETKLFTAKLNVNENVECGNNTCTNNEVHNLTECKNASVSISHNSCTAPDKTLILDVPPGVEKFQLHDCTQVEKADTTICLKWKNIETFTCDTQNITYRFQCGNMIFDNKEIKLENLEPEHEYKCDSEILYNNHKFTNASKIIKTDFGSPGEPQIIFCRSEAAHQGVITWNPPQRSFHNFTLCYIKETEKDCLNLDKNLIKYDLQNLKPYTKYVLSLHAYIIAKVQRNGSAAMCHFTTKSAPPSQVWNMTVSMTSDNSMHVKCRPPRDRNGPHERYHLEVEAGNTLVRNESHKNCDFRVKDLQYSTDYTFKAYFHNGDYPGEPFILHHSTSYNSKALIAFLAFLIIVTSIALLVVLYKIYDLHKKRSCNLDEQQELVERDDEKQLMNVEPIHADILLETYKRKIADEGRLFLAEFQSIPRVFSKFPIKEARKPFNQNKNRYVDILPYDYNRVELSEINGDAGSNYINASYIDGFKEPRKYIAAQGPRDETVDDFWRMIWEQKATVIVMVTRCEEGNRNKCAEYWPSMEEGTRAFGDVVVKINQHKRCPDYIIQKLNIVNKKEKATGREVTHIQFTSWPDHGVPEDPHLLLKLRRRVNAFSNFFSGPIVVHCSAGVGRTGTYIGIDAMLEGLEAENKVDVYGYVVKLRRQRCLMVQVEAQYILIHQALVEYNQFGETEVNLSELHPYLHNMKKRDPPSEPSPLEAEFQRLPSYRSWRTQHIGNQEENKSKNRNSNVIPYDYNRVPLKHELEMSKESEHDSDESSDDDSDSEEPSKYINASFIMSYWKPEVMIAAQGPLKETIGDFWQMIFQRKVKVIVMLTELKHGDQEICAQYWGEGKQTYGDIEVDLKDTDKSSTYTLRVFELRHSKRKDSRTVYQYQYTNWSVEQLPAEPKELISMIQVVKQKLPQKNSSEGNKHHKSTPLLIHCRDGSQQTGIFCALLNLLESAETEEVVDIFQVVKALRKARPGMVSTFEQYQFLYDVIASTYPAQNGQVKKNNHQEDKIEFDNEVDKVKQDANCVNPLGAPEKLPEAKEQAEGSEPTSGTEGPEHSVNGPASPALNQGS
Experimental: (§1) Cells were transfected with a wild-type (WT) construct of the target protein or with vector alone in 384-well format, followed by detection of cellular expression via high-throughput flow cytometry. Serial dilutions of each MAb were tested for immunoreactivity against cells expressing target protein (WT) or vector alone.

[2] = target: T1, human CD45 protein, wild-type (WT) …; assay: high-throughput flow cytometry on HEK-293T cells expressing WT CD45 against vector alone, 5.0 ug/ml
Experimental: as §1

B1: murine anti-CD45 monoclonal antibody BC8 (antibody, mouse IgG1, kappa, V domains shown)
VH: EVKLLESGGGLVQPGGSLKLSCAASGFDFSRYWMSWVRQAPGKGLEWIGEINPTSSTINFTPSLKDKVFISRDNAKNTLYLQMSKVRSEDTALYYCARGNYYRYGDAMDYWGQGTSVTVSS
VL: DIALTQSPASLAVSLGQRATISCRASKSVSTSGYSYLHWYQQKPGQPPKLLIYLASNLESGVPARFSGSGSGTDFTLNIHPVEEEDAATYYCQHSRELPFTFGSGTKLEIKR
modifications: position 141 is found to be a mixture of ASP and ASN in the purified protein (deamidation of ASN-141)
notes: Purified from hybridoma ATCC HB-10507; also called BC8 MAb; anti-CD45 immunoglobulin BC8
[1]
  Signal:Background: 9 signal:background ratio

B2: BC8 Fab (Fab, V domains shown)
VH: B1 VH
VL: B1 VL
notes: It was detected with an anti-mouse F(ab')2 secondary antibody; also called Test Fab
[2]
  Signal:Background: 6 signal:background ratio
